Measurements: US20040086519A1

Target: P-selectin (pig)
Assay: cell-based or functional assay

“soluble P-selectin glycoprotein ligand-1 (PSGL-1) chimera (rPSGL-Ig) (from UniProt Q14242 42-305) (Fc fusion)” gave a decrease in adhesion of 51Cr-platelets to deeply injured arterial segments 1 week following repeat angioplasty (pigs, in vivo) of 85%, a decrease in adhesion of 111In-neutrophils to deeply injured arterial segments 1 week following repeat angioplasty (pigs, in vivo) of 75% and a decrease in neutrophil adhesion at stented coronary sites 4 weeks after stenting (pigs, in vivo) of 49%. The decrease in platelet adhesion at stented coronary sites 4 weeks after stenting (pigs, in vivo) was 39%.
